Molecular target: amyloid-beta oligomers prepared from synthetic Aβ1-42 (UniProt P05067)
Assay: cell-based or functional assay

Chain of UniProt P05067 (P05067 672-713 limits assumed): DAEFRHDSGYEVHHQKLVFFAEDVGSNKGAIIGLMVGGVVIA

AβO binding to dendrites in hippocampal neurons (NU4 immunoreactivity): 50 % decrease
Substance: NUsc1 scFv expressed and secreted by neurons transduced with the AAV9 vector AAV-NUsc1

— patent publication US11541086
